Changes are numbered by the printed parent chain. Where “and” joins values, the source holds several entries; their conditions need not be identical. Equal values may be shown once. Read-outs that look alike come from different tables or passages of the source.
T1: recombinant WNV E ectodomain (strain New York 1999) (West Nile virus, strain New York 1999, UniProt Q9Q6P4 291-694)
T1 construct: range 291-694
T1 sequence: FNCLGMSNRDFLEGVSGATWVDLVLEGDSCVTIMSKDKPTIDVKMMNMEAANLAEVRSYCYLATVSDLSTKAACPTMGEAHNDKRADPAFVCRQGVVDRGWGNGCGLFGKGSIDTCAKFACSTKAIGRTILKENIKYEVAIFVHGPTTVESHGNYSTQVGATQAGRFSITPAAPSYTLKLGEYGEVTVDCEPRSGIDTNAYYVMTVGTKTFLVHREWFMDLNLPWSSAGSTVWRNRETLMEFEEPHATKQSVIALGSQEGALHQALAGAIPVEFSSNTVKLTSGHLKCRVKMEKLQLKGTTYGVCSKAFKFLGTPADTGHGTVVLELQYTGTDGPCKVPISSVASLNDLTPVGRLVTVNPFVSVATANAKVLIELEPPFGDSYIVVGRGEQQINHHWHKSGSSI

B1: ZV-54 monoclonal antibody (antibody, V domains shown)
VH: QVQLQQSGVGLARPGTSVKLSCKASGYSFTTYGISWVTQRPGQGLEWIGVIYPRSNNTYYNERFRGKATLTADKSSSSAYLELRGLTAEDSAVYFCARENYGSVYWGQGTTLTVSS
VL: DIVMTQSQKFMSTSVGDRVTITCKASQSVGTAVAWYHQKPGQSPKLLIYSASNRYTGVPDRFTGSGSGTDFTLTITYMQSEDLADYFCQQFSNYPFTFGGGTKLEIK
notes: also called ZIKV-54
B2: ZV-67 monoclonal antibody (antibody, V domains shown)
VH: B1 VH with V2A, V9T, T16A, S28T, T31S, P41A, N56G, R63K, L81M
VL: B1 VL with T20S, S28N, H37Q, T76S, Y77N, N93S, F96Y
notes: also called ZIKV-67
B3: ZV-2 monoclonal antibody (antibody, V domains shown)
VH: QVQLQESGAELMKPGASVKLSCKTSGYTFIGYWIEWLKQRPGHGLEWVGEIFPGSGRTKYNEKFKGRATFTADTSSNMAYMQLSSLTTEDSAIYYCARYYYGSYYALDYWGQGTSVTVSS
VL: DIVMTQSPSSLSVSAGEKVTLSCKSSQSLLHSGNQKNYLAWYQQKPGQAPKLLIYGASTRESGVPDRFTGSGSGTDFTLTISSVQAEDLAVYYCQNDHSYPLTFGAGTKLELK
notes: also called ZIKV-2
B4: ZV-48 monoclonal antibody (antibody, V domains shown)
VH: QVQLQQPGAELLKPGASVKLSCKASGYSFSNYWMHWVKQRPGQGPEWIGMIHPNSGNTKYNEKFKNKATLTVDKSSSMVYMQLSSLTSEDSAVFYCARLGNDMDYWGQGTSVTVSS
VL: DIVMSQSPSSLAVSVGEKITMSCKSSQSLLYSNNEKNYLAWYQQKPGQSPKLLIYWASARDSGVPDRFTGSGSGTDFTLTISSVKAEDLAVFYCQQYYSYPYTFGGGTKLEIK
notes: also called ZIKV-48

Experiments:
[1] = target: T2, ZIKV quad-fusion-loop variant of the E ectodomain (ZIKV E-FL) (Zika virus, strain H/PF/2013); test: direct ELISA, antigen coated at 2 µg/ml, mAb at 0.5 µg/ml, OD 450 nm
T2 construct: Variant of m8

[2] = target: T3, recombinant soluble ZIKV E protein ectodomain (strain H/PF/2013) (Zika virus, strain H/PF/2013); test: as above
T3 construct: also called ZIKV E ectodomain; monomeric form of the ectodomain of E

[3] = target: T4, ZIKV; test: flow cytometry, infected cells fixed and permeabilized, mAb at 10 µg/ml, Alexa Fluor 647 anti-mouse IgG
T4 construct: also called ZIKV H/PF/2013-infected Vero cells

[4] = target: ZIKV strain H/PF/2013 (French Polynesia, 2013), infectious virus (Zika virus, strain H/PF/2013); test: cell-based or functional assay
[5] = target: T5, recombinant ZIKV DIII (domain III of the E protein, strain H/PF/2013, residues 299 to 407) (Zika virus, strain H/PF/2013, UniProt A0A024B7W1 591-694); test: BLI; half-life calculated from the dissociation constant, kd kinetic
[6] = target: T1, recombinant WNV E ectodomain (strain …); test: ELISA on plate-adsorbed WNV E
[7] = target: T5, recombinant ZIKV DIII (domain III of …); test: BLI, equilibrium
[8] = target: T5, recombinant ZIKV DIII (domain III of …); test: BLI, biotinylated mAb on streptavidin sensor, DIII in solution; KD (equilibrium)
[9] = target: T6, DENV4 E; test: direct ELISA, antigen coated at 2 µg/ml, OD 450 nm
T6 construct: also called DV4-E; recombinant DENV-4 E ectodomain

[10] = target: T5, recombinant ZIKV DIII (domain III of …)
[11] = target: T5, recombinant ZIKV DIII (domain III of …); remark: listed apart in the source
[12] = target: ZIKV subviral particles (SVPs, prM-E of strain H/PF/2013) (Zika virus, strain H/PF/2013)
[13] = target: T5, recombinant ZIKV DIII (domain III of …); remark: listed apart in the source

| Binder | binding result [1] | binding result [2] | binding result [3] | % Neutralization (undiluted sups), focus reduction on Vero cells [4] [%] | t1/2 [5] [min] | binding result [6] | Kd [7] [µM] | Kd [8] [µM] | binding result [9] | koff [10] [s⁻¹] | kon [10] [M⁻¹ s⁻¹] | Kd [11] | EC50 (read off the curve) [12] [ng/mL] | Kd [13] | koff [13] [s⁻¹] | kon [13] [M⁻¹ s⁻¹] |
| --- | --- | --- | --- | --- | --- | --- | --- | --- | --- | --- | --- | --- | --- | --- | --- | --- |
| B1 | binds | binds | binds | 100 | 33 | no binding (tested: 0.5 µg/ml) | < 0.01 | 0.0079 | no binding (tested: 0.5 µg/ml) | 0.000312 | 149000 |  |  |  |  |  |
| B2 | binds | binds | binds | 100 | 13.8 | no binding (tested: 0.5 µg/ml) | < 0.01 | 0.0088 | no binding (tested: 0.5 µg/ml) |  |  | 0.00677 µM and 0.00989 µM | ~5 |  |  |  |
| B3 | binds |  |  | < 30 | 0.3 | no binding (tested: 0.5 µg/ml) | > 0.25 | 0.266 | no binding (tested: 0.5 µg/ml) |  |  |  |  | 0.121 µM and 0.295 µM |  |  |
| B4 | binds | binds | binds | 100 | 3.2 | no binding (tested: 0.5 µg/ml) | ~0.035 | 0.035 | no binding (tested: 0.5 µg/ml) |  |  |  |  | 0.0268 µM and 0.0352 µM | 0.0038 | 148000 |
